The experiment deals with IgG antibodies induced by ovalbumin. The experiment in a line: immunity test: IgG antibodies induced by ovalbumin in blood serum, ELISA 450 nm absorbance. Type of experiment: in vivo, sprague dawley (SD) rats. As to conditions: SD rats, 1 mg ovalbumin at zero and fourteenth day, seventh day. How it is done:
In another aspect of the embodiment, sprague dawley (SD) rats having four to six weeks of age are divided into three groups. Immune response is induced at zero day and fourteenth days by respectively encapsulating 1 mg of ovalbumin in the embeddable micro-needle patch for transdermal drug delivery, injecting saline in muscles, and injecting 1 mg of ovalbumin solution in muscles so as to produce correspondingly IgG antibodies, and blood is drawn from venous sinus under collarbones of the rats at zero day, seventh day, fourteenth day and twenty-first day. The drawn blood is detected by ELISA (enzyme-linked immunosorbent assay) to obtain 450 nm absorbance such that the contents of IgG antibodies antibody induced by ovalbumin in blood serum are determined.
A general note: An ELISA detects its analyte on a solid surface through an enzyme-linked reagent.

B1: ovalbumin (protein, UniProt P01012 2-386, looked up)
Ovalbumin: GSIGAASMEFCFDVFKELKVHHANENIFYCPIAIMSALAMVYLGAKDSTRTQINKVVRFDKLPGFGDSIEAQCGTSVNVHSSLRDILNQITKPNDVYSFSLASRLYAEERYPILPEYLQCVKELYRGGLEPINFQTAADQARELINSWVESQTNGIIRNVLQPSSVDSQTAMVLVNAIVFKGLWEKAFKDEDTQAMPFRVTEQESKPVQMMYQIGLFRVASMASEKMKILELPFASGTMSMLVLLPDEVSGLEQLESIINFEKLTEWTSSNVMEERKIKVYLPRMKMEEKYNLTSVLMAMGITDVFSSSANLSGISSAESLKISQAVHAAHAEINEAGREVVGSAEAGVDAASVSEEFRADHPFLFCIKHIATNAVLFFGRCVSP
notes: 1 mg of ovalbumin solution injected in muscles, conventional muscle injection comparison group
With B1, the “expression of induced IgG antibodies in blood serum compared with saline control group” value is reported as “can be discovered”.

The values are drawn from patent publication US9675789B2, “Embeddable micro-needle patch for transdermal drug delivery and method of manufacturing the same” (NATIONAL CHENG KUNG UNIVERSITY, priority 2012, dated 2017).
